Assay results reported in article PMC2788865.

What was measured:
[1] = target: phospho-Thr^286-αCaMKII (mouse) (UniProt P11798); assay: fluorescence polarisation
[2] = target: calmodulin (CaM); assay: FL-CaM fluorescence polarisation; settings: reference: αCaMKII with Ca2+/FL-CaM, no ATP; sites T286

Sequence of phospho-Thr^286-αCaMKII (mouse) (P11798 whole entry): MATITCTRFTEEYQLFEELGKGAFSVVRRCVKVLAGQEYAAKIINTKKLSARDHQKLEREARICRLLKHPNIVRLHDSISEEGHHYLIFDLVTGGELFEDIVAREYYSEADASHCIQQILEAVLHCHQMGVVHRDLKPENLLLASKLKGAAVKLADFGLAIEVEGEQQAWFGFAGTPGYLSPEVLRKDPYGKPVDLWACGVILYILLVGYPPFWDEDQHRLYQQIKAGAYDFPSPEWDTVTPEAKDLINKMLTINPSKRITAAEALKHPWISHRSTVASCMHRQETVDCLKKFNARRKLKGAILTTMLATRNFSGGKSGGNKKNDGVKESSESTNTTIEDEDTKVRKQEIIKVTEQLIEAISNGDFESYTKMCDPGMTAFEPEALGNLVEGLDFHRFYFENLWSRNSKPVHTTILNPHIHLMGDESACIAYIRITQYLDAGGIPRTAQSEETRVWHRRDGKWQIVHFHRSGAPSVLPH
Sequence of αCaMKII (P11798 whole entry, looked up, change not shown): as the sequence (P11798 whole entry) above

Row | rate constant of CaM dissociation (polarization, slow phase) after EGTA [1] | other: fluorescence polarisation of FL-CaM [2] | Substance
1 | 0.02 s⁻¹ |  | Lys^75-FL-calmodulin (FL-CaM) (from UniProt P0DP23 1-149) (natural protein)
2 |  | stronger; reference 0.33 | αCaMKII (from UniProt P11798) αCaMKII with Ca2+/FL-CaM and ATP (autophosphorylated)
